# Test results published in paper doi:10.1101/2022.02.08.479556.
# Target: SARS-CoV-2 nucleocapsid protein N:G215C mutant (SARS-CoV-2) (UniProt P0DTC9)
# Assay: AUC
substance,measurement,value
SARS-CoV-2 nucleocapsid protein N:G215C mutant (from UniProt P0DTC9 1-419) (natural protein),Kd,3.3 µM
